Data: patent US20130012432A1 (Novo Nordisk, published 2013)
Positions of bridges follow the written chain, without caps; N, C: chain ends. Non-standard residues stand in square brackets, D forms with d. Groups on a side chain read outwards from the residue. Primed or numbered codes have the meaning given here. *: point of attachment. X2 = (2-(2-(16-(tetrazol-5-yl)hexadecanoylamino)ethoxy)ethoxy)acetyl, O=C(CCCCCCCCCCCCCCCc1nn[nH]n1)NCCOCCOCC(=O)*; X6 = (2-(2-(17-carboxyheptadecanoylamino)ethoxy)ethoxy)acetyl, O=C(O)CCCCCCCCCCCCCCCCC(=O)NCCOCCOCC(=O)*; X3 = (2-(2-(15-carboxypentadecanoylamino)ethoxy)ethoxy)acetyl, O=C(O)CCCCCCCCCCCCCCC(=O)NCCOCCOCC(=O)*; X4 = (2-(2-(16-carboxyhexadecanoylamino)ethoxy)ethoxy)acetyl, O=C(O)CCCCCCCCCCCCCCCC(=O)NCCOCCOCC(=O)*; biscarboxymethyl = Lys(biscarboxymethyl) = Nepsilon-bis(carboxymethyl)-L-lysine; biscarboxymethyl(4) = Lys(biscarboxymethyl) = N6-bis(carboxymethyl)-L-lysine; bis(carboxymethyl) = Lys(biscarboxymethyl) = N6-bis(carboxymethyl)-L-lysine; Palmitoyl(16-(5-tetrazolyl)) = O=C(CCCCCCCCCCCCCCCc1nnn[nH]1)*; biscarboxymethyl(3) = Nepsilon-bis(carboxymethyl) on Lys; biscarboxymethyl″ = N6-bis(carboxymethyl) on L-lysine; Lys(CH2CO2H)2 = N[C@@H](CCCCN(CC(=O)O)CC(=O)O)C(=O)O; C18 diacid = O=C(O)CCCCCCCCCCCCCCCCC(=O)*; C16 diacid = O=C(O)CCCCCCCCCCCCCCC(=O)*; Hyp = O=C(O)[C@@H]1C[C@@H](O)CN1; NTA = O=C(O)CN(CC(=O)O)CC(=O)*; hCys = N[C@@H](CCS)C(=O)O; Orn = NCCC[C@H](N)C(=O)O; Dab = NCC[C@H](N)C(=O)O; Dap = NC[C@H](N)C(=O)O; AEEA = NCCOCCOCC(=O)O

Assays:
MC1 receptor = target: T1, MC1 receptor (UniProt Q01726 1-317, limits assumed); assay: 125I-NDP-α-MSH displacement, BHK-MC1 membranes (Assay IV);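 also: membrane incubations stopped by filtration, retained radioactivity counted, Ki fitted by nonlinear regression to binding curves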
T1 construct: whole, on cells; also called melanocortin receptor subtype 1; melanocortin receptor 1
Description: The MC1 receptor binding assay was performed on BHK cell membranes stably expressing the MC1 receptor. […] Test compounds were dissolved in DMSO. […] Alternatively, HSA may be substituted with ovalbumin. The samples were incubated at 30° C. for 90 min. in Costar round-bottom microtiter plates. Incubation was terminated by filtration on a Packard harvester filtermate. […] The filters were washed with ice-cold 0.9% NaCl 8-10 times. […] The plates were counted in a Topcounter (1 min/well).
The data were analysed by non-linear regression analysis of binding curves, using the Windows™ program GraphPad™ Prism (GraphPad Software, USA).

human MC4 receptor = target: T2, human MC4 receptor (human, UniProt P32245 1-332); assay: 125I-NDP-α-MSH displacement, BHK-human MC4 membranes (Assay V);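 also: Filter-retained radioactivity read by gamma counting, with affinity obtained through non-linear regression fitting of the binding curves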
T2 construct: whole, on cells; Assayed as membranes of BHK cells stably expressing the receptor; also called melanocortin receptor subtype 4; melanocortin receptor 4
T2 sequence (P32245 whole entry): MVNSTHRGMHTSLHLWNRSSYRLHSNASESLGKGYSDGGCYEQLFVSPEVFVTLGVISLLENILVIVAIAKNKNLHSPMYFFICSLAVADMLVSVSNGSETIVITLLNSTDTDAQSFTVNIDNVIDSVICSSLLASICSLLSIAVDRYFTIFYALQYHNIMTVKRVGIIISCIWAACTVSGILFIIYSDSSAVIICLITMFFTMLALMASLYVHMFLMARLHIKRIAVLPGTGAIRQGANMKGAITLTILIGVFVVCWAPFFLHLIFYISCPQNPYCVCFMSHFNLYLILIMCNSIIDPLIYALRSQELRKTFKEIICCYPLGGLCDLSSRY

T1 sequence (Q01726 whole entry): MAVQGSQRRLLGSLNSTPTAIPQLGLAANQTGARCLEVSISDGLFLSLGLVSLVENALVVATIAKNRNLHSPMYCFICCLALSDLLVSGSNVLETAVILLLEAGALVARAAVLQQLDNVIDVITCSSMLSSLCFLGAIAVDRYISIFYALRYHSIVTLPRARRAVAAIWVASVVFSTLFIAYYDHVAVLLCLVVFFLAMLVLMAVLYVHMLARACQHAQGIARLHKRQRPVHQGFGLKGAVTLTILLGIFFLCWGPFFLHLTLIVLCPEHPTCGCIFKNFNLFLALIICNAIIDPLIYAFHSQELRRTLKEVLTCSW

| Binder | Ki (MC1 receptor) [µM] | Ki (human MC4 receptor) [nM] |
| --- | --- | --- |
| Ac-[hCys]H[dF]RWCSPHEK(bis(carboxymethyl))K([AEEA-C18 diacid])-NH2 (disulfide 1-6) | 0.442 | 0.55 |
| Ac-[hCys]H[dF]RWCSPKEK(bis(carboxymethyl))K([AEEA-C16 diacid])-NH2 (disulfide 1-6) | 0.169 | 3.43 |
| Ac-[hCys]S[dF]RWCPPKEK(biscarboxymethyl″)K(X2)-NH2 (disulfide 1-6) | 2.06 | 10 |
| Ac-EH[dF]RW[Orn][Hyp][Hyp]RDK(biscarboxymethyl)K(X2)-NH2 (lactam 1-6) | 7.23 | 3.25 |
| Ac-DH[dF]RW[Dab]PPRDK(biscarboxymethyl(4))K(X2)-NH2 (lactam 1-6) | 5.15 | 1.33 |
| Ac-DH[dF]RW[Orn]PPRDK(biscarboxymethyl(3))K([AEEA-Palmitoyl(16-(5-tetrazolyl))])-NH2 (lactam 1-6) | 2.54 | 33 |
| Ac-DH[dF]RW[Dap]PPRDK(NTA)K(X2)-NH2 (lactam 1-6; SMILES CC(=O)N[C@H]1CC(=O)NC[C@@H](C(=O)N2CCC[C@H]2C(=O)N2CCC[C@H]2C(=O)N[C@@H](CCCNC(=N)N)C(=O)N[C@@H](CC(=O)O)C(=O)N[C@@H](CCCCNC(=O)CN(CC(=O)O)CC(=O)O)C(=O)N[C@@H](CCCCNC(=O)COCCOCCNC(=O)CCCCCCCCCCCCCCCc2nn[nH]n2)C(N)=O)NC(=O)[C@H](Cc2c[nH]c3ccccc23)NC(=O)[C@H](CCCNC(=N)N)NC(=O)[C@@H](Cc2ccccc2)NC(=O)[C@H](Cc2c[nH]cn2)NC1=O) | 7.98 | 107 |
| Ac-EH[dF]RW[Orn]PPHDK(biscarboxymethyl)K(X2)-NH2 (lactam 1-6) | 5.17 | 3.58 |
| Ac-[Orn]H[dF]RWDPSSSK(bis(carboxymethyl))SSK([AEEA-C18 diacid])-NH2 (lactam 1-6) | 0.141 | 0.8 |
| Ac-[Orn]H[dF]RWDPPRDK(biscarboxymethyl)K(X2)-NH2 (lactam 1-6) | 2.34 | 0.85 |
| Ac-[Orn]H[dF]RWDPPHEK(biscarboxymethyl)K(X6)-NH2 (lactam 1-6) | 7.37 | 1.8 |
| Ac-[Orn]H[dF]RWDPPHEK(biscarboxymethyl)K(X3)-NH2 (lactam 1-6) | 8.6 | 3.4 |
| Ac-EH[dF]RW[Orn]PPRDK(biscarboxymethyl)K(X3)-NH2 (lactam 1-6) | 3.97 | 5.8 |
| Ac-[Orn]H[dF]RWDPSSSK(biscarboxymethyl)SSK(X3)-NH2 (lactam 1-6) | 3.89 | 1.2 |
| Ac-CEH[dF]RWGCPPKEEK([AEEA-C16 diacid])-NH2 (disulfide 1-8; SMILES CC(=O)N[C@H]1CSSC[C@@H](C(=O)N2CCC[C@H]2C(=O)N2CCC[C@H]2C(=O)N[C@@H](CCCCN)C(=O)N[C@@H](CCC(=O)O)C(=O)N[C@@H](CCC(=O)O)C(=O)N[C@@H](CCCCNC(=O)COCCOCCNC(=O)CCCCCCCCCCCCCCC(=O)O)C(N)=O)NC(=O)CNC(=O)[C@H](Cc2c[nH]c3ccccc23)NC(=O)[C@H](CCCNC(=N)N)NC(=O)[C@@H](Cc2ccccc2)NC(=O)[C@H](Cc2c[nH]cn2)NC(=O)[C@H](CCC(=O)O)NC1=O) | 7.22 | 6.2 |
| Ac-[Orn]H[dF]RWDPSSSK(bis(carboxymethyl))SSK([AEEA-Palmitoyl(16-(5-tetrazolyl))])-NH2 (lactam 1-6) | 5.61 | 0.9 |
| Ac-EH[dF]RW[Dab]PPRDK(biscarboxymethyl(3))K([AEEA-Palmitoyl(16-(5-tetrazolyl))])-NH2 (lactam 1-6) | 3.42 | 39 |
| Ac-EH[dF]RW[Orn]PPRDK(biscarboxymethyl)K(X2)-NH2 (lactam 1-6) | 5.24 | 1.42 |
| Ac-[Orn]H[dF]RWDPPREK(biscarboxymethyl)K(X2)-NH2 (lactam 1-6) | 2.77 | 0.33 |
| Ac-[Dab]H[dF]RWDPPRDK(biscarboxymethyl(3))K([AEEA-Palmitoyl(16-(5-tetrazolyl))])-NH2 (lactam 1-6) | 5.74 | 31 |
| Ac-[Dap]H[dF]RWDPPRDK(NTA)K([AEEA-Palmitoyl(16-(5-tetrazolyl))])-NH2 (lactam 1-6; SMILES CC(=O)N[C@H]1CNC(=O)C[C@@H](C(=O)N2CCC[C@H]2C(=O)N2CCC[C@H]2C(=O)N[C@@H](CCCNC(=N)N)C(=O)N[C@@H](CC(=O)O)C(=O)N[C@@H](CCCCNC(=O)CN(CC(=O)O)CC(=O)O)C(=O)N[C@@H](CCCCNC(=O)COCCOCCNC(=O)CCCCCCCCCCCCCCCc2nnn[nH]2)C(N)=O)NC(=O)[C@H](Cc2c[nH]c3ccccc23)NC(=O)[C@H](CCCNC(=N)N)NC(=O)[C@@H](Cc2ccccc2)NC(=O)[C@H](Cc2c[nH]cn2)NC1=O) | 5.55 | 8.95 |
| Ac-[Orn]H[dF]RWDPPHEK(biscarboxymethyl)K(X4)-NH2 (lactam 1-6) | 4.83 | 1.05 |
| Ac-[Orn]H[dF]RWEPPRDK(bis(carboxymethyl))K([AEEA-Palmitoyl(16-(5-tetrazolyl))])-NH2 (lactam 1-6) | 0.433 | 3.53 |
| Ac-DH[dF]RWKPPRD[Lys(CH2CO2H)2]K([AEEA-Palmitoyl(16-(5-tetrazolyl))])-NH2 (lactam 1-6; SMILES CC(=O)N[C@H]1CC(=O)NCCCC[C@@H](C(=O)N2CCC[C@H]2C(=O)N2CCC[C@H]2C(=O)N[C@@H](CCCNC(=N)N)C(=O)N[C@@H](CC(=O)O)C(=O)N[C@@H](CCCCN(CC(=O)O)CC(=O)O)C(=O)N[C@@H](CCCCNC(=O)COCCOCCNC(=O)CCCCCCCCCCCCCCCc2nnn[nH]2)C(N)=O)NC(=O)[C@H](Cc2c[nH]c3ccccc23)NC(=O)[C@H](CCCNC(=N)N)NC(=O)[C@@H](Cc2ccccc2)NC(=O)[C@H](Cc2c[nH]cn2)NC1=O) | 0.279 | 13 |
| Ac-[hCys]H[dF]RWCPPKE[Dap](NTA)K([AEEA-Palmitoyl(16-(5-tetrazolyl))])-NH2 (disulfide 1-6; SMILES CC(=O)N[C@H]1CCSSC[C@@H](C(=O)N2CCC[C@H]2C(=O)N2CCC[C@H]2C(=O)N[C@@H](CCCCN)C(=O)N[C@@H](CCC(=O)O)C(=O)N[C@@H](CNC(=O)CN(CC(=O)O)CC(=O)O)C(=O)N[C@@H](CCCCNC(=O)COCCOCCNC(=O)CCCCCCCCCCCCCCCc2nnn[nH]2)C(N)=O)NC(=O)[C@H](Cc2c[nH]c3ccccc23)NC(=O)[C@H](CCCNC(=N)N)NC(=O)[C@@H](Cc2ccccc2)NC(=O)[C@H](Cc2c[nH]cn2)NC1=O) | 0.177 | 0.6 |
| Ac-[hCys]H[dF]RWCPPKD[Dap](NTA)K([AEEA-Palmitoyl(16-(5-tetrazolyl))])-NH2 (disulfide 1-6; SMILES CC(=O)N[C@H]1CCSSC[C@@H](C(=O)N2CCC[C@H]2C(=O)N2CCC[C@H]2C(=O)N[C@@H](CCCCN)C(=O)N[C@@H](CC(=O)O)C(=O)N[C@@H](CNC(=O)CN(CC(=O)O)CC(=O)O)C(=O)N[C@@H](CCCCNC(=O)COCCOCCNC(=O)CCCCCCCCCCCCCCCc2nnn[nH]2)C(N)=O)NC(=O)[C@H](Cc2c[nH]c3ccccc23)NC(=O)[C@H](CCCNC(=N)N)NC(=O)[C@@H](Cc2ccccc2)NC(=O)[C@H](Cc2c[nH]cn2)NC1=O) | 7.54 | 0.64 |
